Results on two molecules are retold here after patent US20020193570A1 (EMD LEXIGEN RESEARCH CENTER, published 2002).

One experiment addresses T1, Fc-p40 fusion protein (human, UniProt P29460 23-328).
T1 construct: mature; Expected to dimerize through the Fc; not shown: human IgG1 Fc (vector pdC-Fc-X)
T1 sequence (looked up): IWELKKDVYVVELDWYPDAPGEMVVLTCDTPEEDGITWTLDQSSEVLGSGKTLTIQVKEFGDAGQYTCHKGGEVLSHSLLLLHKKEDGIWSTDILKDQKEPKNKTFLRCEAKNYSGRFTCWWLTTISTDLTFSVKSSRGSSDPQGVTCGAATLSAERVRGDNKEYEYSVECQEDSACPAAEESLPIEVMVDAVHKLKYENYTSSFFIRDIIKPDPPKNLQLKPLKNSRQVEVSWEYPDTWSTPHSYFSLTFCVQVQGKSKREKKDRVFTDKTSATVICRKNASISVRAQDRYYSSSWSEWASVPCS
The experiment in a line: co-expression in 293 cells, protein A Sepharose precipitation of 35S-labelled supernatant, SDS-PAGE. On the procedure:
(§1) After 16 hr, the medium containing the precipitate was removed and replaced with fresh medium. After 3 days, the supernatant was removed and analyzed for production of transfected gene expression by ELISA, biological determination of IL-12 activity, or immunoprecipitation and analysis on SDS gels of radioactively labeled proteins. For labeling, medium without methionine was used to replace the growth medium on the second day of culture and ³⁵S-methionine (100 μCi/ml) is added. After an additional 16 hr incubation, the media was harvested, clarified by centrifugation (5 min at 13,000 rpm in a table top microcentrifuge) and incubated with protein A Sepharose beads (10 μl of bead volume per ml of culture supernatant). After 1 hr at room temperature, the beads were washed by repeated centrifugation and resuspension in PBS buffer containing 1% NP-40. The final pellet was resuspended in SDS-containing gel buffer and boiled for 2 min. After removing the beads by centrifugation, the supernatant was divided into two aliquots. Reducing agent (5% 2-mercaptoethanol) was added to one sample and both are boiled for 5 min prior to loading on an SDS polyacrylamide gel. After electrophoresis the gel was exposed to X-ray film (autoradiography).
(§2) An example of an analysis of the co-expression of various fusion proteins and individually expressed proteins, under reducing conditions, is shown in FIG. 2. […] The p40 subunit, on the other hand, was readily secreted when fused to Fc (lane 2). The p35 subunit was secreted when it could pair with the p40 subunit, either as an Fc-p35 fusion pairing with an Fc-p40 fusion protein (lane 3), the Fc-p35 pairing with free p40 (lane 4), or free p35 pairing with the Fc-p40 fusion protein (lane 5). In all cases of expression of a free subunit, together with a fusion protein, the free subunit assembles with the other subunit and forms a covalent, disulfide bond. […]

In experiment [1] the target is T2, free p40 subunit of human IL-12 (human, UniProt P29460 23-328).
T2 construct: mature
T2 sequence (looked up): T1 sequence (looked up)
The experiment is described as above. On the procedure: as §1, §2

B1: free p35 subunit of human IL-12 (ligand, UniProt P29459 23-219, looked up)
chain: RNLPVATPDPGMFPCLHHSQNLLRAVSNMLQKARQTLEFYPCTSEEIDHEDITKDKTSTVEACLPLELTKNESCLNSRETSFITNGSCLASRKTSFMMALCLSSIYEDLKMYQVEFKTMNAKLLMDPKRQIFLDQNMLAVIDELMQALNFNSETVPQKSSLEEPDFYKTKIKLCILLHAFRIRAVTIDRVMSYLNAS
notes: mature
With B1, in the experiment with Fc-p40 fusion protein, the binding result was “binds”.

B2: Fc-p35 fusion protein (Fc fusion, human, UniProt P29459 23-219, looked up)
chain: B1 chain
notes: mature; Expected to dimerize through the Fc; Not secreted unless paired with p40; not shown: human IgG1 Fc (vector pdC-Fc-X)
Take B2: the binding result (with Fc-p40 fusion protein; in experiment [1]) was “binds” in each case.
